Among the data in PMC10015519 are stoichiometry N values, retold here.

Experiment [1] addresses PF-D-Trimer (pre-fusion trimerized SARS-CoV-2 Delta spike protein ectodomain fused to the Trimer Domain) (SARS-CoV-2) (UniProt P0DTC2). The experiment can be described thus: SEC-MALS.
For experiment [2] the target is unchanged. The experiment can be described thus: reducing and non-reducing SDS-PAGE.
In experiment [3] the target is PF-W-Trimer (pre-fusion trimerized SARS-CoV-2 WA1 spike protein ectodomain fused to the Trimer Domain) (SARS-CoV-2) (UniProt P0DTC2). The experiment can be described thus: SEC-MALS. On the technique in general: SEC sorts molecules by how far they enter the pores of the column.
Experiment [4] shares this target. Briefly: reducing and non-reducing SDS-PAGE.

For the substance “PF-D-Trimer (pre-fusion trimerized SARS-CoV-2 Delta spike protein ectodomain fused to the Trimer Domain) (from UniProt P0DTC2 14-1213)”, the stoichiometry N in experiment [1] and in experiment [2] was 3 in each case.
Regarding “PF-W-Trimer (pre-fusion trimerized SARS-CoV-2 WA1 spike protein ectodomain fused to the Trimer Domain) (from UniProt P0DTC2 14-1213)”, the stoichiometry N in experiment [3] and in experiment [4] was 3 in each case.
